From the supplement of paper PMC10126150
± gives the standard deviation of the averaged measurements.

System: ATP
Assay: switch fluorescence ratio, 500 uM ATP over buffer (Cy3 cluster intensity, sum of 5 cycles each) (fold (ratio)); higher = stronger signal-on switching upon ATP binding; sequences stand for … in TCGTCGGCAGCGTCAGATGTGTATAAGAGACAGTTTTTTTTTTTTTTTTTTTTTTTTT…TC
Settings: aptamer strand: ATP DNA aptamer (quencher-CACCTGGGGGAGTATTGCGGAGGAAGG + anchor), 100 nM annealed; ATP concentration: 500 uM
In short: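 After annealing to 100 nM quencher-labelled ATP aptamer, Cy3-labelled switching-strand clusters on a modified Illumina MiSeq flow-cell were imaged in selection buffer. A second image followed after 15 min with 500 uM ATP at 22 °C, and five such buffer/ATP cycles were done, each separated by NaOH stripping and re-annealing. The fluorescence ratio, averaged per switch-domain sequence, is summed target-cycle over summed buffer-cycle Cy3 intensity per cluster, with clusters outside 100-1000 RFU excluded.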
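Also: ATP exposure 15 min at 22 °C before imaging.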

GATCTTAGGG
switch fluorescence ratio: 0.989 ± 0.028

GATCTTGGGT
switch fluorescence ratio: 1.11 ± 0.19

GATGAAAAAG
switch fluorescence ratio: 1.033 ± 0.0093

GATGAAATTG
switch fluorescence ratio: 0.953 ± 0.045

GATGAAGATT
switch fluorescence ratio: 1.011 ± 0.005

GATGAAGGTA
switch fluorescence ratio: 0.991 ± 0.052

GATGAATGGA
switch fluorescence ratio: 0.959 ± 0.011

GATGAATTGG
switch fluorescence ratio: 0.975 ± 0.012

GATGACTTGC
switch fluorescence ratio: 1 ± 0.064

GATGAGAGGA
switch fluorescence ratio: 1.03 ± 0.05

GATGAGCCCT
switch fluorescence ratio: 1.03 ± 0.015

GATGAGCGCC
switch fluorescence ratio: 1.03 ± 0.037

GATGAGGCGG
switch fluorescence ratio: 0.9832 ± 0.0015

GATGAGGTGC
switch fluorescence ratio: 1.07 ± 0.024

GATGATAAAA
switch fluorescence ratio: 0.989 ± 0.033

GATGATAACG
switch fluorescence ratio: 0.99754 ± 0.00091

GATGATCGTT
switch fluorescence ratio: 0.988 ± 0.0094

GATGATCTAT
switch fluorescence ratio: 1.01 ± 0.035

GATGATGGTG
switch fluorescence ratio: 0.968 ± 0.011

GATGCAGTTC
switch fluorescence ratio: 1.66 ± 0.053

GATGCATGC
switch fluorescence ratio: 1.22 ± 0.065

GATGCCACAG
switch fluorescence ratio: 1.02 ± 0.07

GATGCCGTAG
switch fluorescence ratio: 0.9997 ± 0.0036

GATGCGACCA
switch fluorescence ratio: 1.04 ± 0.065

GATGCGGGGG
switch fluorescence ratio: 1.02 ± 0.039

GATGCGGGTG
switch fluorescence ratio: 1.07 ± 0.016

GATGCGTGGC
switch fluorescence ratio: 0.998 ± 0.027

GATGCTAGAT
switch fluorescence ratio: 1.01 ± 0.026

GATGGAAAAA
switch fluorescence ratio: 1.04 ± 0.012

GATGGACAGC
switch fluorescence ratio: 1.04 ± 0.041

GATGGAGGGG
switch fluorescence ratio: 0.9965 ± 0.0039

GATGGATCGA
switch fluorescence ratio: 0.977 ± 0.039

GATGGATCGG
switch fluorescence ratio: 1.01 ± 0.017

GATGGATGGA
switch fluorescence ratio: 1.05 ± 0.026

GATGGCAAGG
switch fluorescence ratio: 1.04 ± 0.043

GATGGCCACG
switch fluorescence ratio: 0.9881 ± 0.0047

GATGGCCAGC
switch fluorescence ratio: 1.01 ± 0.041

GATGGCGGGG
switch fluorescence ratio: 0.981 ± 0.03

GATGGCGGGT
switch fluorescence ratio: 1.02 ± 0.07

GATGGCGTAT
switch fluorescence ratio: 0.98 ± 0.031

GATGGGAAGT
switch fluorescence ratio: 1.01 ± 0.024

GATGGGACAG
switch fluorescence ratio: 1.01 ± 0.0019

GATGGGAGGG
switch fluorescence ratio: 0.99 ± 0.027

GATGGGCTAA
switch fluorescence ratio: 1.04 ± 0.022

GATGGGCTTT
switch fluorescence ratio: 0.983 ± 0.024

GATGGGGCAC
switch fluorescence ratio: 1.01 ± 0.013

GATGGGGCGG
switch fluorescence ratio: 1.01 ± 0.048

GATGGGGTAA
switch fluorescence ratio: 0.997 ± 0.008

GATGGGTTTC
switch fluorescence ratio: 0.987 ± 0.012

GATGGTAACT
switch fluorescence ratio: 0.984 ± 0.017

GATGGTATTT
switch fluorescence ratio: 0.9794 ± 0.0062

GATGGTGTGG
switch fluorescence ratio: 0.997 ± 0.015

GATGGTTCGC
switch fluorescence ratio: 0.976 ± 0.015

GATGTAGGAT
switch fluorescence ratio: 0.978 ± 0.014

GATGTAGGGA
switch fluorescence ratio: 1.02 ± 0.029

GATGTATATG
switch fluorescence ratio: 0.992 ± 0.018

GATGTATGTT
switch fluorescence ratio: 0.978 ± 0.037

GATGTCAGGT
switch fluorescence ratio: 1.03 ± 0.044

GATGTCCCAG
switch fluorescence ratio: 1 ± 0.017

GATGTCGTTT
switch fluorescence ratio: 1.02 ± 0.049

GATGTCTGTT
switch fluorescence ratio: 0.955 ± 0.021

GATGTGCAAA
switch fluorescence ratio: 1.01 ± 0.022

GATGTGCCAG
switch fluorescence ratio: 0.969 ± 0.017

GATGTGCGAG
switch fluorescence ratio: 1.01 ± 0.017

GATGTGGGGC
switch fluorescence ratio: 0.996 ± 0.029

GATGTGTAGA
switch fluorescence ratio: 0.999 ± 0.018

GATGTGTGTT
switch fluorescence ratio: 0.9735 ± 0.0089

GATGTTAGGT
switch fluorescence ratio: 0.996 ± 0.023

GATGTTCGTG
switch fluorescence ratio: 0.994 ± 0.014

GATGTTGCGT
switch fluorescence ratio: 1.018 ± 0.004

GATGTTGGAA
switch fluorescence ratio: 0.997 ± 0.034

GATGTTTGAG
switch fluorescence ratio: 0.991 ± 0.017

GATGTTTGGC
switch fluorescence ratio: 1.05 ± 0.013

GATGTTTGGG
switch fluorescence ratio: 0.987 ± 0.019

GATGTTTGGT
switch fluorescence ratio: 0.99 ± 0.021

GATGTTTTGA
switch fluorescence ratio: 1 ± 0.018

GATTAAAACT
switch fluorescence ratio: 1.07 ± 0.025

GATTAAAATT
switch fluorescence ratio: 0.951 ± 0.064

GATTAAGGGT
switch fluorescence ratio: 1.04 ± 0.03

GATTAATAAG
switch fluorescence ratio: 1.16 ± 0.26

GATTAATCTG
switch fluorescence ratio: 0.962 ± 0.015

GATTAATGAG
switch fluorescence ratio: 1.01 ± 0.027

GATTACATGC
switch fluorescence ratio: 1.01 ± 0.037

GATTACTTTG
switch fluorescence ratio: 0.9562 ± 0.0039

GATTAGAGGG
switch fluorescence ratio: 0.9877 ± 0.0081

GATTATTAGC
switch fluorescence ratio: 0.9999 ± 0.004

GATTATTAGT
switch fluorescence ratio: 1.012 ± 0.01

GATTATTCTT
switch fluorescence ratio: 1.03 ± 0.035

GATTATTGGA
switch fluorescence ratio: 1.01 ± 0.026

GATTATTTGG
switch fluorescence ratio: 0.986 ± 0.011

GATTCAAGTG
switch fluorescence ratio: 0.96 ± 0.022

GATTCAGGAC
switch fluorescence ratio: 1.04 ± 0.012

GATTCATTAT
switch fluorescence ratio: 0.988 ± 0.011

GATTCCTATC
switch fluorescence ratio: 0.996 ± 0.039

GATTCGAATC
switch fluorescence ratio: 1 ± 0.034

GATTCGATCT
switch fluorescence ratio: 0.993 ± 0.024

GATTCTATAG
switch fluorescence ratio: 0.988 ± 0.036

GATTGAAAGG
switch fluorescence ratio: 0.957 ± 0.0097

GATTGAATAA
switch fluorescence ratio: 0.997 ± 0.019

GATTGACCCT
switch fluorescence ratio: 1.048 ± 0.0092

GATTGACGGC
switch fluorescence ratio: 1 ± 0.045

GATTGACGTG
switch fluorescence ratio: 0.957 ± 0.08

GATTGAGCGG
switch fluorescence ratio: 1.01 ± 0.018

GATTGATTTA
switch fluorescence ratio: 1 ± 0.021

GATTGCAGTA
switch fluorescence ratio: 0.983 ± 0.036

GATTGCCGCG
switch fluorescence ratio: 1 ± 0.047

GATTGCCGTG
switch fluorescence ratio: 1.03 ± 0.024

GATTGCGGTC
switch fluorescence ratio: 1.03 ± 0.016

GATTGCTGGT
switch fluorescence ratio: 0.9513 ± 0.0046

GATTGGATCG
switch fluorescence ratio: 0.9904 ± 0.0051

GATTGGCGCG
switch fluorescence ratio: 1.006 ± 0.0031

GATTGGGCTC
switch fluorescence ratio: 1.02 ± 0.036

GATTGGGGCT
switch fluorescence ratio: 1.02 ± 0.039

GATTGGGTGT
switch fluorescence ratio: 1.03 ± 0.054

GATTGGTATT
switch fluorescence ratio: 0.995 ± 0.044

GATTGGTTCC
switch fluorescence ratio: 1.05 ± 0.036

GATTGTAGGT
switch fluorescence ratio: 1 ± 0.015

GATTGTGATG
switch fluorescence ratio: 0.9724 ± 0.0055

GATTGTGTG
switch fluorescence ratio: 0.998 ± 0.03

GATTTAATAG
switch fluorescence ratio: 0.9625 ± 0.0076

GATTTAATCC
switch fluorescence ratio: 0.974 ± 0.032

GATTTACTGG
switch fluorescence ratio: 1.04 ± 0.024

GATTTAGACG
switch fluorescence ratio: 0.945 ± 0.06

GATTTAGATT
switch fluorescence ratio: 1 ± 0.046

GATTTATATC
switch fluorescence ratio: 0.993 ± 0.028

GATTTCAGCT
switch fluorescence ratio: 0.997 ± 0.019

GATTTCATG
switch fluorescence ratio: 0.993 ± 0.019

GATTTCTCGT
switch fluorescence ratio: 0.9551 ± 0.0021

GATTTGACGG
switch fluorescence ratio: 0.983 ± 0.022

GATTTGATTT
switch fluorescence ratio: 0.991 ± 0.037

GATTTGCAGG
switch fluorescence ratio: 0.983 ± 0.033

GATTTGCATC
switch fluorescence ratio: 1.03 ± 0.025

GATTTGCTTT
switch fluorescence ratio: 0.98 ± 0.013

GATTTGGAGC
switch fluorescence ratio: 0.9911 ± 0.0076

GATTTGGAGT
switch fluorescence ratio: 0.985 ± 0.018

GATTTGGCTG
switch fluorescence ratio: 0.986 ± 0.019

GATTTGGGT
switch fluorescence ratio: 0.997 ± 0.051

GATTTGGTCA
switch fluorescence ratio: 0.9976 ± 0.0034

GATTTGGTCT
switch fluorescence ratio: 1.04 ± 0.035

GATTTGTAAA
switch fluorescence ratio: 0.99 ± 0.029

GATTTGTGAC
switch fluorescence ratio: 0.977 ± 0.052

GATTTGTGGG
switch fluorescence ratio: 0.994 ± 0.024

GATTTGTTAG
switch fluorescence ratio: 0.977 ± 0.022

GATTTTACGA
switch fluorescence ratio: 0.994 ± 0.052

GATTTTAGTA
switch fluorescence ratio: 1.01 ± 0.033

GATTTTCGTA
switch fluorescence ratio: 0.985 ± 0.025

GATTTTCGTC
switch fluorescence ratio: 0.996 ± 0.032

GATTTTGGGA
switch fluorescence ratio: 0.9815 ± 0.0068

GATTTTGTAA
switch fluorescence ratio: 1.012 ± 0.004

GATTTTGTGG
switch fluorescence ratio: 0.971 ± 0.02

GATTTTGTTC
switch fluorescence ratio: 1.03 ± 0.02

GCAAAAAAAG
switch fluorescence ratio: 0.96 ± 0.077

GCAAAGGGGT
switch fluorescence ratio: 0.996 ± 0.021

GCAAATGGAA
switch fluorescence ratio: 0.982 ± 0.042

GCAACGGCGG
switch fluorescence ratio: 1.01 ± 0.054

GCAACGGGAG
switch fluorescence ratio: 0.988 ± 0.035

GCAACTGATC
switch fluorescence ratio: 1.19 ± 0.031
